{"source": "patent US20170360770A1", "molecules": {"B1": {"name": "IMMU-114 (hL243), humanized anti-HLA-DR IgG4 monoclonal antibody (antibody, from a related filing, V domains shown)", "VH": "QVQLQQSGSELKKPGASVKVSCKASGFTFTNYGMNWVKQAPGQGLKWMGWINTYTREPTYADDFKGRFAFSLDTSVSTAYLQISSLKADDTAVYFCARDITAVVPTGFDYWGQGSLVTVSS", "VL": "DIQLTQSPSSLSASVGDRVTITCRASENIYSNLAWYRQKPGKAPKLLVFAASNLADGVPSRFSGSGSGTDYTFTISSLQPEDIATYYCQHFWTTPWAFGGGTKLQIKR"}}, "key": {"[1]": {"target": "human leukocyte antigen-DR (HLA-DR), on human cancer cell lines (human)", "assay": "cell-based or functional assay"}, "[2]": {"target": "human leukocyte antigen-DR (HLA-DR), on human cancer cell lines (human)", "assay": "cell-based ELISA on HLA-DR positive human melanoma cell line (printed A-374)"}, "[3]": {"target": "human leukocyte antigen-DR (HLA-DR), on human cancer cell lines (human)", "assay": "FACS, AlexaFluor-647-labeled IMMU-114 on MN-60 ALL cells"}, "[4]": {"target": "human leukocyte antigen-DR (HLA-DR), on human cancer cell lines (human)", "assay": "FACS, AlexaFluor-647-labeled IMMU-114 on JVM-3 CLL cells"}, "[5]": {"target": "human leukocyte antigen-DR (HLA-DR), on human cancer cell lines (human)", "assay": "FACS, AlexaFluor-647-labeled IMMU-114 on MOLM-14 AML cells"}, "[6]": {"target": "human leukocyte antigen-DR (HLA-DR), on human cancer cell lines (human)", "assay": "FACS, AlexaFluor-647-labeled IMMU-114 on CAG MM cells"}, "[7]": {"target": "human leukocyte antigen-DR (HLA-DR), on human cancer cell lines (human)", "assay": "chemiluminescent cell-binding assay on SK-MEL-5 human melanoma cells"}, "[8]": {"target": "human leukocyte antigen-DR (HLA-DR), on human cancer cell lines (human)", "assay": "chemiluminescent cell-binding assay on A-375 human melanoma cells"}, "[9]": {"target": "human leukocyte antigen-DR (HLA-DR), on human cancer cell lines (human)", "assay": "chemiluminescent cell-binding assay on SK-MEL-2 human melanoma cells"}, "[10]": {"target": "human leukocyte antigen-DR (HLA-DR), on human cancer cell lines (human)", "assay": "chemiluminescent cell-binding assay (LUMIGLO), 2 µg/mL antibody on A-375 cells; reference: humanized anti-CD22 control antibody"}, "[11]": {"target": "human leukocyte antigen-DR (HLA-DR), on human cancer cell lines (human)", "assay": "chemiluminescent cell-binding assay on SK-MEL-28 human melanoma cells"}, "[12]": {"target": "human leukocyte antigen-DR (HLA-DR), on human cancer cell lines (human)", "assay": "chemiluminescent cell-binding assay (LUMIGLO), 2 µg/mL antibody on A-375 human melanoma cells, at both 4° C. and RT"}}}
{"molecule": "IMMU-140 (hL243-CL2A-SN-38), anti-HLA-DR antibody drug conjugate", "values": [{"measurement": "IC50 (nM), in vitro cytotoxicity, CAG (MM) cells, MTS 96 h (nM (SN-38 equivalents))", "setting": "[1]", "result": 7.05}, {"measurement": "IC50 (nM), in vitro cytotoxicity, JVM-3 (CLL) cells, MTS 96 h (nM (SN-38 equivalents))", "setting": "[1]", "result": 0.77}, {"measurement": "IC50 (nM), in vitro cytotoxicity, MN-60 (ALL) cells, MTS 96 h (nM (SN-38 equivalents))", "setting": "[1]", "result": 1.29}, {"measurement": "IC50 (nM), in vitro cytotoxicity, MOLM-14 (AML) cells, MTS 96 h (nM (SN-38 equivalents))", "setting": "[1]", "result": 1.21}, {"measurement": "Kd", "setting": "[2]", "result": 0.77, "unit": "nM"}]}
{"molecule": "B1", "values": [{"measurement": "Mean fluorescence intensity (MFI)", "setting": "[3]", "result": 65800, "unit": "MFI"}, {"measurement": "Mean fluorescence intensity (MFI)", "setting": "[4]", "result": 78700, "unit": "MFI"}, {"measurement": "Mean fluorescence intensity (MFI)", "setting": "[5]", "result": 5750, "unit": "MFI"}, {"measurement": "IC50 (nM), in vitro cytotoxicity, CAG (MM) cells, MTS 96 h", "setting": "[1]", "result": "> 40", "unit": "nM"}, {"measurement": "IC50 (nM), in vitro cytotoxicity, JVM-3 (CLL) cells, MTS 96 h", "setting": "[1]", "result": 1.52, "unit": "nM"}, {"measurement": "IC50 (nM), in vitro cytotoxicity, MN-60 (ALL) cells, MTS 96 h", "setting": "[1]", "result": "> 40", "unit": "nM"}, {"measurement": "IC50 (nM), in vitro cytotoxicity, MOLM-14 (AML) cells, MTS 96 h", "setting": "[1]", "result": "> 40", "unit": "nM"}, {"measurement": "Maximum % Inhibition at 40 nM, CAG (MM) cells", "setting": "[1]", "result": 28, "unit": "%"}, {"measurement": "Maximum % Inhibition at 40 nM, JVM-3 (CLL) cells", "setting": "[1]", "result": 65, "unit": "%"}, {"measurement": "Maximum % Inhibition at 40 nM, MN-60 (ALL) cells", "setting": "[1]", "result": 37, "unit": "%"}, {"measurement": "Maximum % Inhibition at 40 nM, MOLM-14 (AML) cells", "setting": "[1]", "result": 11, "unit": "%"}, {"measurement": "Mean fluorescence intensity (MFI)", "setting": "[6]", "result": 80700, "unit": "MFI"}, {"measurement": "fold above background", "setting": "[7]", "result": 12, "unit": "fold"}, {"measurement": "Kd", "setting": "[2]", "result": 0.65, "unit": "nM"}, {"measurement": "fold above background", "setting": "[8]", "result": 48, "unit": "fold"}, {"measurement": "fold above background", "setting": "[9]", "result": 2, "unit": "fold"}, {"measurement": "fold mean luminescence over non-specific control", "setting": "[10]", "result": "> 25", "unit": "fold"}, {"measurement": "fold above background", "setting": "[11]", "result": 25, "unit": "fold"}, {"measurement": "fold mean luminescence over background", "setting": "[12]", "result": "> 48", "unit": "fold"}]}
